Reference: patent publication US20210198328A1, “MODULATED CAS-INHIBITORS” (Universität Heidelberg, priority 2017, published 2021)

Assays:
HEK 293T cells = assay: Light-induced nuclear export, mCherry fluorescence imaging; type: cell-based, human
Experimental: FIG. 5: Induced nuclear export inhibits AcrIIA4 function. (A) Schematic of AcrIIA4 construct fused to mCherry-LEXY. LEXY, light-inducible nuclear export system; fusion polypeptide sequence is SEQ ID NO: 114 (encoded by SEQ ID NO: 74). (B) Fluorescence images of HEK 293T cells transfected with the construct in A. mCherry images were taken prior to induction (Preinduction), after 15 min of irradiation with blue light (Post Activation) and after an additional 20 min recovery phase in the absence of blue light (Post Recovery). (C) Line profile of the indicated cell in B, (D) Bar plot showing control of dCas9-VP64-mediated luciferase reporter activation by NLS-AcrIIA4-mCherry-LEXY. […]
To test whether sequestering AcrIIA4 away from the nucleus could be a possible mode for allosteric Acr control we employed a light-inducible nuclear export system (LEXY) previously reported (Niopek et al., 2016), which mediates the nuclear export of proteins fused to the LEXY domain (an AsLOV2-Nuclear Export Signal-Hybrid) in response to blue light. […] The nuclear mChcrry fluorescence fully recovered within 20 min when blue-light irradiation was stopped, showing that AcrIIA4 nuclear export was reversible (FIGS. 5B and Q.

dCas9-VP64 = molecular target: T1, dCas9-VP64 (Streptococcus pyogenes serotype M1, UniProt Q99ZW2, D10A/N863A); assay: dCas9-VP64 luciferase reporter trans-activation assay; type: cell-based; settings: HEK 293T
T1 construct: host or cells: HEK 293T
Experimental: HEK 293T cells were seeded into black, clear-bottom 96-well plates (Corning) at a density of ˜12.500 cells per well Twenty-four hours after seeding, cells were transfected according to the manufacturer's instructions using Lipofectamine® 2000 and Opti-MEM® reduced serum medium (Thermo Fisher). […]
(§1) Six h post-transfection, medium was replaced and the cells were illuminated with 460 nm pulsatile blue light (light intensity 2-3 W/m^2 as measured with a LI-COR LI-250A Light Meter, pulsatile illumination regime is indicated in figure legends) or kept in the dark under otherwise identical conditions for 32-42 h (indicated in figure legends). […] Subsequently, the luciferase activity was measured using the Dual-Glo luciferase assay kit (Promega) according to the manufacturer's protocol. In brief, the cells were lysed using the provided lysis buffer and tire activity of firefly and Renilla luciferase was quantified using a GLOMAX 96 Microplate Luminometer (Promega) with automated injectors (delay time 2 s, integration time 10 s). The relative luciferase activity was calculated by dividing the firefly luciferase photon counts by the Renilla luciferase photon counts. […]

Cas9 = molecular target: T2, Cas9 (Streptococcus pyogenes serotype M1, UniProt Q99ZW2); assay: T7 endonuclease assay, CFTR locus editing; type: cell-based; settings: HEK 293T
T2 construct: expressed in transfected cells; host or cells: HEK 293T
Experimental: HEK 293T cells were seeded into transparent 96-well plates (Coming). […] Sixteen It post-transfection, cells were irradiated with blue light (7 s ON, 7 s OFF, 3 W/m^2) for 32 h or kept in the dark as control. Subsequently, cells were washed with PBS and lysed using the DirectPCR lysis reagent (PcqLab). A fragment spanning the edited part of the CFTR locus was PCR-amplified using Q5 polymerase and the following primers: CFTR_fw: 5′-[…]-3′, SEQ ID NO: 30; CFTR_re: 5′-[…]-3′, SEQ ID NO: 31). The PCR reaction was run on an agarose gel and the amplicon was purified using a QIAGEN Gel Extraction Kit. Two hundred ng of PCR diluted in 19.5 μl 1× NEB Buffer 2 were then healed up to 95° C. followed by re-annealing in a thermocycler. Next, 0.5 μl of T7 Endonuclease (NEB) were added, and the reaction was incubated at 37° C. for 15 min and then stopped by adding EDTA-containing gel loading dye. Lastly, T7 reactions were analyzed on a 2% agarose gel stained with GelRed (Biotium, Inc.).

SpyCas9 = molecular target: T3, SpyCas9 (Streptococcus pyogenes serotype M1, UniProt Q99ZW2); assay: Cas9 luciferase reporter cleavage assay (dual luciferase); type: cell-based; settings: HEK 293T, 48 h post-transfection; for effect on Cas9-caused firefly luciferase knockdown (Cas9 inhibition): with or without N-terminal SV40 NLS
T3 construct: 2A-GFP (C); host or cells: HEK 293T
Experimental: HEK 293T cells were seeded into black, clear-bottom 96-well plates (Corning) at a density of ˜12.500 cells per well Twenty-four hours after seeding, cells were transfected according to the manufacturer's instructions using Lipofectamine® 2000 and Opti-MEM® reduced serum medium (Thermo Fisher).
For the dCas9-VP64 trans-activation assays, 50 ng/well of each, a plasmid encoding dCas9-VP64_GFP (Addgene plasmid #61422, kind gift from Feng Zhang), a tet-inducible firefly luciferase reporter (Addgene plasmid #64127, kind gift from Moritoshi Sato) and a TetO-targeting guide RNA vector (Addgene plasmid #64161, kind gift from Moritoshi Sato) were co-transfected alongside 1 ng/well pRL-TK (TK-driven Renilla expression vector for normalization; Promega) as well as 1-50 ng/well of the AcrIIA4 constructs and, optionally, stuffer DMA (pcDNA3.1(−) (Invitrogen)). For the reporter cleavage assay, a plasmid encoding an H1 promoter-driven guideRNA as well as firefly luciferase and Renilla luciferase was co-transfected alongside Cas9 expression vector pSpCas9(BB)-2A-GFP (PX453; Addgene plasmid #48138, kind gift from Feng Zhang) as weft as the corresponding AcrIIA4 variant (50 ng/well each). […]
as §1

Substance: NLS-AcrIIA4-mCherry-LEXY: NLS-tagged AcrIIA4 fused to mCherry and light-inducible nuclear export system LEXY; SEQ ID NO: 114
- time to full recovery of nuclear mCherry fluorescence after blue-light irradiation was stopped (HEK 293T cells): ≤ 20 min
- nuclear mCherry fluorescence upon blue-light irradiation (HEK 293T cells; 15 min blue light): fast and strong decrease
- dCas9-VP64-mediated luciferase reporter induction upon light-induced nuclear export (dCas9-VP64; blue light vs dark, dose-dependent): noticeable increase

Substance: construct 1: LOV2 inserted between AcrIIA4 residues E66/Y67, no linkers; SEQ ID NO: 88
- Cas9 inhibition in the dark (CFTR locus editing) (Cas9; Cas9:AcrIIA4 construct 1:1, dark): no significant
- light-dependent Cas9 inhibition (CFTR locus editing light vs dark) (Cas9; Cas9:AcrIIA4 construct 1:4, blue light 32 h or dark): inhibited Cas9 in a light-dependent manner
- Cas9 block in the dark (CFTR editing in dark sample) (Cas9; Cas9:AcrIIA4 construct 1:4, dark): did not fully block Cas9
- Cas9 inhibition in the absence of blue light (SpyCas9; LOV2 insertion screen at 41 positions): highest

Substance: AcrIIA4: anti-CRISPR polypeptide of a Listeria monocytogenes prophage, SEQ ID NO: 1 [reference compound]
- effect on Cas9-caused firefly luciferase knockdown (Cas9 inhibition) (SpyCas9): strongly reduced

Substance: SV40 NLS-AcrIIA4: N-terminal SV40 NLS fusion to AcrIIA4; SEQ ID NO: 115
- effect on Cas9-caused firefly luciferase knockdown (Cas9 inhibition) (SpyCas9): full recovery of the luciferase reporter signal

Substance: cMyc^PIA NLS-mCherry-AcrIIA4
- AcrIIA4 activity due to nuclear targeting (dCas9-VP64 inhibition) (dCas9-VP64; 48 h post-transfection): boost in AcrIIA4 activity
